Experimental data published in patent US20180339041A1 (Kyowa Kirin, published 2018).

T1: C-terminally FLAG-tagged human Gas6 recombinant protein (hGas6-F) (human, UniProt Q14393 31-678, gamma-carboxylated glutamic acid residues in the Gla domain (producer cells co-express rat VKOR and human GGCX); positions not given)
T1 construct: also called human Gas6-F; human Gas6 protein
T1 sequence: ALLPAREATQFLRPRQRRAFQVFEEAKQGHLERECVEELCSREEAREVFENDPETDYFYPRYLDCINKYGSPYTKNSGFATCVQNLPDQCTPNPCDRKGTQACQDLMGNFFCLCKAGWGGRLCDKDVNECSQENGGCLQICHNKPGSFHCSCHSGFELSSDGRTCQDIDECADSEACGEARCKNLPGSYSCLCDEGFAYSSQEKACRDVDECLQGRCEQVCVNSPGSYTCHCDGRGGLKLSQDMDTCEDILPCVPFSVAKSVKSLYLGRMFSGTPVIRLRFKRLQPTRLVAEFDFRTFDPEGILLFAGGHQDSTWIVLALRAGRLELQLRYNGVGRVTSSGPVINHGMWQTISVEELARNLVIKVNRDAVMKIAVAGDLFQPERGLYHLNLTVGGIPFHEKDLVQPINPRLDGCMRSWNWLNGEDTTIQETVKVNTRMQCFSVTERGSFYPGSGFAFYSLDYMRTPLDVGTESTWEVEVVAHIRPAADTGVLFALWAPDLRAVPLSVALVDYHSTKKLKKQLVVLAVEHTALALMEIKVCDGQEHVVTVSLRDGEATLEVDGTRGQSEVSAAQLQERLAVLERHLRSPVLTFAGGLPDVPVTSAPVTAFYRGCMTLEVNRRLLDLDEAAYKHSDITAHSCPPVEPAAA

T2: C-terminally FLAG-tagged mouse Gas6 recombinant protein (mGas6-F) (mouse, UniProt Q61592 28-674, limits assumed, gamma-carboxylated glutamic acid residues in the Gla domain (producer cells co-express rat VKOR and human GGCX); positions not given)
T2 construct: also called mouse Gas6-F
T2 sequence (looked up): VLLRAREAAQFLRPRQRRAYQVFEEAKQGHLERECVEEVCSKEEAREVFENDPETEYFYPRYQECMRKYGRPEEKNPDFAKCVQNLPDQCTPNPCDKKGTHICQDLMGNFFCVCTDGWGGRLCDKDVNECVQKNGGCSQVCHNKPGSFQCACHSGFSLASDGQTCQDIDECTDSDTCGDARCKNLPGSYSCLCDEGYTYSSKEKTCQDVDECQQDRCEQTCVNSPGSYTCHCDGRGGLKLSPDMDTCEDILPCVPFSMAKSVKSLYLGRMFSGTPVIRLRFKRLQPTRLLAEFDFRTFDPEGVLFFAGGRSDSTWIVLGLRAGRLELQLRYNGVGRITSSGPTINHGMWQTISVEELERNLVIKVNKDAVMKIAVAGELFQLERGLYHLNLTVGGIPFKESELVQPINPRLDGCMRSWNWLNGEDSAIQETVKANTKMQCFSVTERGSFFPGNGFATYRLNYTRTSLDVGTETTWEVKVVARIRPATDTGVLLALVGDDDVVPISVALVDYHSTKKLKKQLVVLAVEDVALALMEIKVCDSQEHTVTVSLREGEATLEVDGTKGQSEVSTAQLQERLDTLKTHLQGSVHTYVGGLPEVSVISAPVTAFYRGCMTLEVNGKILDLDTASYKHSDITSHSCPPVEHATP


How the values were obtained:
[1] = target: T1, C-terminally FLAG-tagged human Gas6 …; assay: ELISA, Gas6-F captured by anti-FLAG, biotinylated antibody
Protocol: After removal of the immobilization solution, 1% BSA-PBS (manufactured by Nacalai Tesque, Inc.) was added thereto at 300 μL/well, and the plate was left standing at room temperature for 1 hour for blocking and washed five times with Tween 20-PBS (manufactured by Wako Pure Chemical Industries Ltd.).
(§1) Each antibody solution was dispensed thereto at 50 μL/well, and the plate was left standing at room temperature for 1 hour. This plate was washed five times with Tween 20-PBS. Then, Streptavidin HRP Conjugate (manufactured by R&D Systems, Inc.) diluted 200-fold with 1% BSA-PBS was dispensed thereto at 50 μL/well, and the plate was left standing at room temperature for 1 hour. This plate was washed five times with Tween 20-PBS, and TMB (manufactured by Sigma-Aldrich Co. LLC) was added thereto at 50 μL/well and reacted. At an appropriate point in time, the reaction was terminated by the addition of 1 N hydrochloric acid (manufactured by Wako Pure Chemical Industries Ltd.) at 50 μL/well. The absorbance at a sample wavelength of 450 nm and a reference wavelength of 570 nm (450 nm-570 nm) was measured using a plate reader.

[2] = target: T2, C-terminally FLAG-tagged mouse Gas6 …; assay: ELISA: mGas6-F (1 µg/mL) captured on coated anti-FLAG M2 antibody; biotinylated test antibody; streptavidin-HRP/TMB; absorbance 450-570 nm, N=2 (Example 6) [D]
Protocol: First, 2 μg/mL anti-FLAG antibody [Monoclonal ANTI-FLAG M2 antibody produced in mouse (manufactured by Sigma-Aldrich Co. LLC) diluted with PBS (manufactured by Nacalai Tesque, Inc.)] was dispensed at 50 μL/well to a 96-well plate for ELISA (manufactured by Nalge Nunc International), and the plate was left standing overnight at 4° C. for adsorption. After removal of the immobilization solution, 1% BSA-PBS (manufactured by Nacalai Tesque, Inc.) was added thereto at 300 μL/well, and the plate was left standing at room temperature for 1 hour for blocking and washed five times with Tween 20-PBS (manufactured by Wako Pure Chemical Industries Ltd.).
as §1, with “At an appropriate point in time, the reaction was terminated by the addition of 1 N hydrochloric acid (manufactured by Wako Pure Chemical Industries Ltd.) at 50 μL/well.” left out

[3] = target: T1, C-terminally FLAG-tagged human Gas6 …; assay: cell-based or functional assay

| antibody concentration at which binding activity was detected [1] [µg/mL] | EC50 (read off the curve) [2] [ng/mL] | antibody:Gas6 molar concentration ratio at complete inhibition of reporter activation [3] | Binder |
| --- | --- | --- | --- |
| 0.0003 | ~3 | 2 antibody:Gas6 molar ratio | anti-human Gas6 mouse monoclonal antibody KM5320 (KM5320-mKG1 antibody) (antibody, V domains shown, Hybridoma-derived mouse IgG1, kappa; also called KM5320 antibody) VH: QIQLVQSGPELKKPGETVKISCKASGYTFTNYGMNWVKQAPGKGLKWMGWINTETGEPTYSDDFKGRFAFSLETSATTAYLQINNLRNEDMATYFCAREDGYYGTLDYWGQGTSVTVSS VL: SIVMTQTPKFLLVSAGDRVTITCKASQSVSNDVAWYQQKPGQSPKVLIYYASNRYTGVPDRFTGSGYGTDFTFTISTVQAEDLAVYFCQQDYSSPWTFGGGTKLEIK |
| 0.0003 | ~4 | 2 antibody:Gas6 molar ratio | anti-human Gas6 mouse monoclonal antibody KM5321 (KM5321-mKG1 antibody) (antibody, V domains shown, Hybridoma-derived mouse IgG1, kappa; also called KM5321 antibody) VH: QIQLVQSGPELKKPGETVKISCRASGYTFTNYGMNWVKQAPGKGLKWMGWINTNTGEPTYTEEFKGRFAFSLETSATTAYLQINDLKNEDTATYFCARDEGWFVYWGQGTLITVSA VL: ETTVTQSPASLSVATGEKVTIRCITSTDIDDDMNWYQQKPGEPPKLLISEGNTLRPGVPSRFSSSGYGTDFVFTIENTLSEDVADYYCLQTDSVPLTFGAGTKLELK |
